Key:
[1] = target: T1, human FcγRIIIaV extracellular domain with C-terminal His-tag (human, UniProt P08637 17-208); assay: SPR (BIACORE), antibody captured, FcgR analyte
T1 construct: also called human FcgRIIIaV; not shown: His-tag added to the C-terminus

[2] = target: T2, cynomolgus monkey FcγRIIa2 extracellular domain with C-terminal His-tag (cynomolgus monkey); assay: SPR (BIACORE), antibody captured, FcgR analyte
T2 construct: also called cyno FcgRIIa2; cynoFcγRIIa2; not shown: His-tag added to the C-terminus
T2 chain: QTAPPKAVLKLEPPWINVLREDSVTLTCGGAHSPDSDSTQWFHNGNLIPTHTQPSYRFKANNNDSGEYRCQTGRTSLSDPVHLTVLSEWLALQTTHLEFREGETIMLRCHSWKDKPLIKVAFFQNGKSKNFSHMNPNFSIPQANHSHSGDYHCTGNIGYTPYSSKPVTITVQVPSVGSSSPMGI

[3] = target: T3, human FcγRIIaR extracellular domain with C-terminal His-tag (human, UniProt P12318 34-217); assay: SPR (BIACORE), antibody captured, FcgR analyte
T3 construct: also called human FcgRIIaR; FcγRIIa type R; not shown: His-tag added to the C-terminus
T3 chain: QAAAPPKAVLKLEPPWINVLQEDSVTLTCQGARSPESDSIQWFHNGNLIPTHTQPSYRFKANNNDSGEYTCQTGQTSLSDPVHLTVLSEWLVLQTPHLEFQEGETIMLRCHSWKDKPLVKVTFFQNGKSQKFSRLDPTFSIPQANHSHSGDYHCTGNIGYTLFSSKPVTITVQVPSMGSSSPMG

[4] = target: T4, cynomolgus monkey FcγRIIa1 extracellular domain with C-terminal His-tag (cynomolgus monkey); assay: SPR (BIACORE), antibody captured, FcgR analyte
T4 construct: also called cyno FcgRIIa1; cynoFcγRIIa1; not shown: His-tag added to the C-terminus
T4 chain: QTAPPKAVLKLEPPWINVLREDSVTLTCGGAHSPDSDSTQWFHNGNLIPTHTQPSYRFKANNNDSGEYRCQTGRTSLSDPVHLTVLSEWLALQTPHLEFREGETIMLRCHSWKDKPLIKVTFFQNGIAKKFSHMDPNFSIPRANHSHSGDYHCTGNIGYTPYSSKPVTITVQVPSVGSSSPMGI

[5] = target: T5, cynomolgus monkey FcγRIIb extracellular domain with C-terminal His-tag (cynomolgus monkey); assay: SPR (BIACORE), antibody captured, FcgR analyte
T5 construct: also called cyno FcgRIIb; cynoFcγRIIb; not shown: His-tag added to the C-terminus
T5 chain: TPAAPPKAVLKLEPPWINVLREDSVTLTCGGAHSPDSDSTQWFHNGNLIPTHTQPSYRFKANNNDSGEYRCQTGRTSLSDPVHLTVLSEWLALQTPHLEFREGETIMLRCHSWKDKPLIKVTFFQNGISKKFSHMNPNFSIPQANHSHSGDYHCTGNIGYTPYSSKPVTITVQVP

[6] = target: T6, human FcγRIIb extracellular domain with C-terminal His-tag (human, UniProt P31994 43-217); assay: SPR (BIACORE), antibody captured, FcgR analyte
T6 construct: also called human FcgRIIb; not shown: His-tag added to the C-terminus
T6 sequence: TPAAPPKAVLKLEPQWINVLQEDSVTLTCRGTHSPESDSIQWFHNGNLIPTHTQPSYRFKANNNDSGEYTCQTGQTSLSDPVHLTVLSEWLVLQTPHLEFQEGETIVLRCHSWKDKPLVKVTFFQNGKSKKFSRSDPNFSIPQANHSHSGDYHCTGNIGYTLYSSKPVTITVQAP

[7] = target: T7, human FcγRIIaH extracellular domain with C-terminal His-tag (human, UniProt P12318 34-217); assay: SPR (BIACORE), antibody captured, FcgR analyte
T7 construct: also called human FcgRIIaH; FcγRIIa type H; not shown: His-tag added to the C-terminus
T7 sequence: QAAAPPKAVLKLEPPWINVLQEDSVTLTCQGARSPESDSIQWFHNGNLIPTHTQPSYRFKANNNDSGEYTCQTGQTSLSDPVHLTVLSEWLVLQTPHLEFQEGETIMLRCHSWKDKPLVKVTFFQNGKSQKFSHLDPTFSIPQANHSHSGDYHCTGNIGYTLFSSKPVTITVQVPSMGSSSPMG

[8] = target: T8, cynomolgus monkey FcγRIIIaS extracellular domain with C-terminal His-tag (cynomolgus monkey, UniProt A3RFZ7 21-206 (rhesus entry)); assay: SPR (BIACORE), antibody captured, FcgR analyte
T8 construct: also called cyno FcgRIIIaS; cynoFcγRIIIaS; not shown: His-tag added to the C-terminus

[9] = target: T9, cynomolgus monkey FcγRIIa3 extracellular domain with C-terminal His-tag (cynomolgus monkey); assay: SPR (BIACORE), antibody captured, FcgR analyte
T9 construct: also called cyno FcgRIIa3; cynoFcγRIIa3; not shown: His-tag added to the C-terminus
T9 chain: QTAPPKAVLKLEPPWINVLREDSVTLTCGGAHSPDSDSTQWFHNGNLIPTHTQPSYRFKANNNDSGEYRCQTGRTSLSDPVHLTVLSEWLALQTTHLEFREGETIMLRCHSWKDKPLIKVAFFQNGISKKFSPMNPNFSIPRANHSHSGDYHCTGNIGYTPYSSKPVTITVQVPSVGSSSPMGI

[10] = target: T1, human FcγRIIIaV extracellular domain …; assay: SPR (BIACORE); KD of SG1 / KD of variant
[11] = target: T2, cynomolgus monkey FcγRIIa2 …; assay: SPR (BIACORE); KD of SG1 / KD of variant
[12] = target: T3, human FcγRIIaR extracellular domain …; assay: SPR (BIACORE); KD of SG1 / KD of variant
[13] = target: T4, cynomolgus monkey FcγRIIa1 …; assay: SPR (BIACORE); KD of SG1 / KD of variant
[14] = target: T5, cynomolgus monkey FcγRIIb extracellular …; assay: SPR (BIACORE); KD of SG1 / KD of variant
[15] = target: T6, human FcγRIIb extracellular domain with …; assay: SPR (BIACORE); KD of SG1 / KD of variant
[16] = target: T7, human FcγRIIaH extracellular domain …; assay: SPR (BIACORE); KD of SG1 / KD of variant
[17] = target: T8, cynomolgus monkey FcγRIIIaS …; assay: SPR (BIACORE); KD of SG1 / KD of variant
[18] = target: T9, cynomolgus monkey FcγRIIa3 …; assay: SPR (BIACORE); KD of SG1 / KD of variant
[19] = target: T10, cynomolgus monkey FcγRIIIaS extracellular domain, His-tagged (cynomolgus monkey, UniProt A3RFZ7 21-206 (rhesus entry)); assay: SPR (BIACORE); KD of SG1 divided by KD of the variant
T10 construct: also called cyno FcgRIIIaS; cynoFcγRIIIaS; not shown: His-tag added to the C-terminus
Procedure: (§1) The kinetic analysis of interactions between these antibodies and FcγR was carried out using BIACORE® T200 or BIACORE® 4000 (GE Healthcare). HBS-EP+ (GE Healthcare) was used as the running buffer, and the measurement temperature was set to 25° C. […] After the measurement, the antibody captured on the chip was washed off by allowing reaction with 10 mM glycine-HCl, pH1.5 and 25 mM NaOH so that the chip was regenerated and used repeatedly. The sensorgrams obtained as measurement results were analyzed by the 1:1 Langmuir binding model using the BIACORE® Evaluation Software to calculate the binding rate constant ka (L/mol/s) and dissociation rate constant kd (1/s), and the dissociation constant KD (mol/L) was calculated from these values. […] Regarding such interactions, KD values were calculated using the following 1:1 binding model described in BIACORE® T100 Software Handbook BR1006-48 Edition AE.

[20] = target: T11, human FcγRIIaR extracellular domain, His-tagged (human, UniProt P12318 34-217); assay: as above
T11 construct: also called human FcgRIIaR; FcγRIIa (type R); not shown: His-tag added to the C-terminus
T11 chain: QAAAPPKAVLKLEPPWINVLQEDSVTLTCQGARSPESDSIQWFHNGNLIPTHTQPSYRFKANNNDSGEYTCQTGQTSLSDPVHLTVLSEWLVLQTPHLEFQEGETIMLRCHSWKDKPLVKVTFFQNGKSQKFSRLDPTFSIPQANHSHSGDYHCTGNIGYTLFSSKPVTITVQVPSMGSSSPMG
Procedure: as §1

[21] = target: T12, cynomolgus monkey FcγRIIa3 extracellular domain, His-tagged (cynomolgus monkey); assay: as above
T12 construct: also called cyno FcgRIIa3; cynoFcγRIIa3; not shown: His-tag added to the C-terminus
T12 chain: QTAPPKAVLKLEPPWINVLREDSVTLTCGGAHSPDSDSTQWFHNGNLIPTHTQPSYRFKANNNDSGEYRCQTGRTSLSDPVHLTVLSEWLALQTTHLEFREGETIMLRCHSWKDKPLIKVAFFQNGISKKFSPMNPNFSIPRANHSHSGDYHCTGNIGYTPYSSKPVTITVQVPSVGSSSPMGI
Procedure: as §1

[22] = target: T13, cynomolgus monkey FcγRIIa2 extracellular domain, His-tagged (cynomolgus monkey); assay: as above
T13 construct: also called cyno FcgRIIa2; cynoFcγRIIa2; not shown: His-tag added to the C-terminus
T13 chain: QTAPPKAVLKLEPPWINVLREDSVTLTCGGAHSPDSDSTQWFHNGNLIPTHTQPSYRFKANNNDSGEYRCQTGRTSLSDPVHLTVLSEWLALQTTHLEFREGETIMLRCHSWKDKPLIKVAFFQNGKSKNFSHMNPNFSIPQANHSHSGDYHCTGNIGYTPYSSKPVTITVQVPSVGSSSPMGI
Procedure: as §1

T8 sequence (A3RFZ7 21-206): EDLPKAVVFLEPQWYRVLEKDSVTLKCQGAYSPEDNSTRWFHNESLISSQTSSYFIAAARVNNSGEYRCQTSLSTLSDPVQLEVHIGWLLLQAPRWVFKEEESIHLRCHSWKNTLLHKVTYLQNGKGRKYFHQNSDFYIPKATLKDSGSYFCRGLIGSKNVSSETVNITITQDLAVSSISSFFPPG
T1 sequence (P08637 17-208 F176V): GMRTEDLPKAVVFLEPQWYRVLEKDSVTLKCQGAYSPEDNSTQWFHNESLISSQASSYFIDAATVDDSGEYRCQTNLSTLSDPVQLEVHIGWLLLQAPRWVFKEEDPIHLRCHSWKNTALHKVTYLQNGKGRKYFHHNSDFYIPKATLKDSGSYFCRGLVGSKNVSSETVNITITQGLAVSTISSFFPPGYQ
T10 sequence (A3RFZ7 21-206): as the sequence (A3RFZ7 21-206) above

B1: M103205H795-MY146/M103202L889-SK1 (antibody, human IgG1, kappa, name in EU numbering)
heavy: QVTLKESGPVLVKPTETLTLTCTVSGIDLSHDDISWVRQAPGKGLEWVGIISYAGSTYYASWAKGRLTISKDTSKNQVVLTMTNMDPVDTATYYCARGVPAYSHGGDLWGQGTLVTVSSASTKGPSVFPLAPSSKSTSGGTAALGCLVKDYFPEPVTVSWNSGALTSGVHTFPAVLQSSGLYSLSSVVTVPSSSLGTQTYICNVNHKPSNTKVDKKVEPKSCDKTHTCPPCPAPELLNGPSVFLFPPKPKDTLMISRTPEVTCVVVDVSEEDPEVKFNWYVDGVEVHNAKTKPREEQYNLTYRVVSVLTVLHQDWLNGKEYKCKVSNKALPAPIEKTISKAKGQPREPQVYTLPPSREEMTKNQVSLTCLVKGFYPSDIAVEWESNGQPENNYKTTPMVLDSDGSFFLYSKLTVDKSRWQQGNVFSCSVMHEALHNHYTQKSLSLSP
light: DIVMTQSPATLSLSPGERATLSCTSSQSVYHANWLSWFQQKPGQPPKLLIYWASTLAYGVPSRFSGSGSGTDFTLTISSLQPEDAATYYCAGGYGGGRYAFGQGTKVEIKRTVAAPSVFIFPPSDEQLKSGTASVVCLLNNFYPREAKVQWKVDNALQSGNSQESVTEQDSKDSTYSLSSTLTLSKADYEKHKVYACEVTHQGLSSPVTKSFNRGEC
notes: Fc variant of MS1032LO06-SG1; positions in EU numbering
[1]
  Kd: 8800 nM
[2]
  Kd: 1800 nM
[3]
  Kd: 2100 nM
[4]
  Kd: 170 nM
[5]
  Kd: 850 nM
[6]
  Kd: 880 nM
[7]
  Kd: 2200 nM
[8]
  Kd: 3100 nM
[9]
  Kd: 4800 nM
[10]
  KD fold (SG1 = 1): 0.09 fold
[11]
  KD fold (SG1 = 1): 2.8 fold
[12]
  KD fold (SG1 = 1): 0.5 fold
[13]
  KD fold (SG1 = 1): 18.8 fold
[14]
  KD fold (SG1 = 1): 2.1 fold
[15]
  KD fold (SG1 = 1): 5.2 fold
[16]
  KD fold (SG1 = 1): 0.3 fold
[17]
  KD fold (SG1 = 1): 0.12 fold
[18]
  KD fold (SG1 = 1): 3.5 fold

B2: M103205H795-MY201/M103202L889-SK1 (antibody, human IgG1, kappa)
heavy: QVTLKESGPVLVKPTETLTLTCTVSGIDLSHDDISWVRQAPGKGLEWVGIISYAGSTYYASWAKGRLTISKDTSKNQVVLTMTNMDPVDTATYYCARGVPAYSHGGDLWGQGTLVTVSSASTKGPSVFPLAPSSKSTSGGTAALGCLVKDYFPEPVTVSWNSGALTSGVHTFPAVLQSSGLYSLSSVVTVPSSSLGTQTYICNVNHKPSNTKVDKKVEPKSCDKTHTCPPCPAPELLNGPSVFLFPPKPKDTLMISRTPEVTCVVVDVSDEDPEVKFNWYVDGVEVHNAKTKPREEQYNSTYRVVSVLTVLHQDWLNGKEYKCKVSNKALPKPIEKTISKAKGQPREPQVYTLPPSREEMTKNQVSLTCLVKGFYPSDIAVEWESNGQPENNYKTTPPVLDSDGSFFLYSKLTVDKSRWQQGNVFSCSVMHEALHNHYTQKSLSLSP
light: DIVMTQSPATLSLSPGERATLSCTSSQSVYHANWLSWFQQKPGQPPKLLIYWASTLAYGVPSRFSGSGSGTDFTLTISSLQPEDAATYYCAGGYGGGRYAFGQGTKVEIKRTVAAPSVFIFPPSDEQLKSGTASVVCLLNNFYPREAKVQWKVDNALQSGNSQESVTEQDSKDSTYSLSSTLTLSKADYEKHKVYACEVTHQGLSSPVTKSFNRGEC
notes: Fc variant of SG1 with G236N/H268D/A330K; also called MS1032LO06-MY201
[19]
  KD fold (SG1 = 1): 0.05 fold
[20]
  KD fold (SG1 = 1): 0.5 fold
[21]
  KD fold (SG1 = 1): 4 fold
[22]
  KD fold (SG1 = 1): 3.8 fold
